Test results: patent publication US20250345445A1, “ANTIBODY-DRUG CONJUGATE AND USE THEREOF” (CSPC MEGALITH BIOPHARMACEUTICAL CO., LTD., priority 2021, published 2025)
Like-named read-outs stand apart in the source and are kept apart here. Marks after values point to notes of the source that are not given here. *1 amine or outer side, *2 acyl side, *3 side chain or, on linkers, in order; H or OH if unused. Where a SMILES comes first, the peptide text is derived from it. [ ]: non-standard residue; d: D form. The star is where a group is joined. Exatecan = CC[C@@]1(O)C(=O)OCc2c1cc1n(c2=O)Cc2c-1nc1cc(F)c(C)c3c1c2[C@@H](N*)CC3; Hexanoyl(6-maleimido) = O=C1C=CC(=O)N1CCCCCC(=O)*; X1 = C[C@@H](OCN[*:1])C(=O)[*:2]; X2 = O=C(COCCOCN[*:1])[*:2]

Experiments:
[1] = system: human lung adenocarcinoma PC9-GR (gefitinib-resistant cell) xenograft tumour; assay: Assay 3: efficacy of patritumab-ADC on PC9-GR xenograft tumour; assay type: in vivo, NU/NU mice; details: 3 mg/kg i.v./qw*4 w
[2] = system: human colon cancer SW620 xenograft tumour; assay: Assay 15: efficacy of patritumab-ADC on SW620 xenograft tumour; assay type: in vivo, NU/NU mice; details: 7 mg/kg i.v./single administration
Description: The assay was terminated on day 26 after the administration. The inhibition effects of patritumab-DXD ADC (DAR=7.3) and patritumab-JSSW-001 ADC (DAR=7.36) on human colon cancer SW620 xenograft tumour in nude mice were compared.

[3] = system: human colorectal cancer DiFi xenograft tumour; assay: Assay 16: efficacy of patritumab-ADC on DiFi xenograft tumour; assay type: in vivo, NU/NU mice; details: Table 29: 10 mg/kg i.v./qw*3w
Description: The assay was terminated on day 28 after the administration.

[4] = Assay 8: stability of linker-drug compounds; assay type: physicochemical; details: high temperature, high humidity, illumination or 0.5% BSA-PBS; LC-MS/MS; Deruxtecan also studied
Method: Different linker-drug compounds such as Deruxtecan, JSSW-001, and ZW-002 were studied under high temperature (40° C., 60° C.), high humidity (25° C./75% RH and 25° C./92.5% RH), illumination (illuminance 4500 Lux, near-UV energy […]), or 0.5% BSA-PBS conditions. Samples were collected at different times after exposure to these conditions, and the concentration changes of the linker-drug compounds in the samples were detected using the LC-MS/MS method.

[5] = more active than the common chemotherapy drug irinotecan; cited from earlier work
[6] = Phase Ib, cited from earlier work
[7] = biological target: T1, EGFR on MDA-MB-468 cells (human, UniProt P00533 25-1210); assay: flow cytometry on MDA-MB-468 cells, antibody diluted in PBS pH 6.0, FITC anti-human Fc
T1 construct: whole, on cells; also called epidermal growth factor receptor; HER1

[8] = biological target: T1, EGFR on MDA-MB-468 cells; assay: flow cytometry on MDA-MB-468 cells, pH 7.4; ratio of EC50 to SWY2110
[9] = biological target: T1, EGFR on MDA-MB-468 cells; assay: flow cytometry on MDA-MB-468 cells, pH 6.0; ratio of EC50 to SWY2110
[10] = biological target: T1, EGFR on MDA-MB-468 cells; assay: flow cytometry on MDA-MB-468 cells, antibody diluted in PBS pH 7.4, FITC anti-human Fc
[11] = early data published by the company; cited from earlier work

Question: Which “TGI(%) Day 28” value [1] does the source give for “patritumab-DXD ADC (DAR = 7.3): patritumab antibody conjugated with commercially available Deruxtecan [reference compound]” here?
Answer: 59.5%

Question: What about the “Tumour Volume” value ([1]; 28 days after administration) of the same molecule?
Answer: 373.4 ± 102.8** mm^3

Question: What about the “TGI(%) Day 21” value [2] of the same molecule?
Answer: 73.2%

Question: What about the “Tumour Volume” value ([2]; 21 days after administration) of the same molecule?
Answer: 461.3 ± 278.1*** mm^3

Question: And the “Tumour Volume” value ([3]; 28 days after administration)?
Answer: 512.5 ± 470.8* mm^3

Question: What about the “TGI(%) Day 28” value [3] of the same molecule?
Answer: 54.0%

Question: For CC[C@@]1(O)C(=O)OCc2c1cc1n(c2=O)Cc2c-1nc1cc(F)c(C)c3c1c2[C@@H](NC(=O)COCCOCNC(=O)CNC(=O)[C@H](Cc1ccccc1)NC(=O)CNC(=O)CNC(=O)CCCCCN1C(=O)C=CC1=O)CC3 [ZW-002, N—((S)-13-benzyl-1-(((1S,9S)-9-ethyl-5-fluoro-9-hydroxy-4-methyl-10,13-dioxo-2,3,9,10,13,15-hexahydro-1H,12H-benzo[de]pyrano[3′,4′:6,7]indolizino[1,2-b]quinolin-1-yl)amino)-1,9,12,15,18-pentaoxo-3,6-dioxa-8,11,14,17-tetraazanonadecan-19-yl)-6-(2,5-dioxo-2,5-dihydro-1H-pyrrol-1-yl)hexanamide] ({Hexanoyl(6-maleimido)}-GGFG[X2]-Exatecan), which “stability of linker-drug compound” value [4] is on record?
Answer: better stability

Question: With CC[C@@]1(O)C(=O)OCc2c1cc1n(c2=O)Cc2c-1nc1cc(F)c(C)c3c1c2[C@@H](NC(=O)CO)CC3 [DXd] as the molecule, how does the “activity relative to irinotecan” value [5] read?
Answer: 10 times

Question: For CC[C@@]1(O)C(=O)OCc2c1cc1n(c2=O)Cc2c-1nc1cc(F)c(C)c3c1c2[C@@H](NC(=O)[C@@H](C)OCNC(=O)CNC(=O)[C@H](Cc1ccccc1)NC(=O)CNC(=O)CNC(=O)CCCCCN1C(=O)C=CC1=O)CC3 [JSSW-001, N-((2R,10S)-10-benzyl-1-(((1S,9S)-9-ethyl-5-fluoro-9-hydroxy-4-methyl-10,13-dioxo-2,3,9,10,13,15-hexahydro-1H,12H-benzo[de]pyrano[3′,4′:6,7]indolizino[1,2-b]quinolin-1-yl)amino)-2-methyl-1,6,9,12,15-pentaoxo-3-oxa-5,8,11,14-tetraazahexadecan-16-yl)-6-(2,5-dioxo-2,5-dihydro-1H-pyrrol-1-yl)hexanamide] ({Hexanoyl(6-maleimido)}-GGFG[X1]-Exatecan), which “stability of linker-drug compound” value [4] is on record?
Answer: better stability

Question: What does the source list for MRG003?
Answer: objective response rate (ORR) ([6]; patients with nasopharyngeal carcinoma (4/9)): 44%; objective response rate (ORR) ([6]; patients with non-small cell lung cancer (4/10)): 40%

B1: EGFR antibody SWY2111 (antibody, human IgG1, kappa, V domains shown)
VH: QVQLQESGPGLVKPSETLSLTCTVSGFSLSDYDVHWVRQAPGKGLEWLGVIWSGGNTDYNTPFTSRLTISVDTSKNQFSLKLSSVTAADTAVYYCARALDDYDYEFAYWGQGTLVTVSS
VL: EIVLTQSPDFQSVTPKEKVTITCRASQSIGTNIHWYQQKPDQSPKLLIKYASESISGIPSRFSGSGSGTDFTLTINSLEAEDAATYYCQQNNEWPTSFGQGTKLEIKR
Question: Which EC50 [7] does the source give for B1 here?
Answer: 0.6 nM

Question: What about the “fold decrease of affinity compared to SWY2110” value [8] of the same molecule?
Answer: 3 times

Question: And the “fold change of affinity compared to SWY2110” value [9]?
Answer: 1.2 to 1.3 times

Question: And the EC50 [10]?
Answer: 1.45 nM

B2: EGFR antibody SWY2112 (antibody, human IgG1, kappa, V domains shown)
VH: QVQLQESGPGLVKPSETLSLTCTVSGFSLSEYDVHWVRQAPGKGLEWLGVIWSGGNTDYNTPFTSRLTISVDTSKNQFSLKLSSVTAADTAVYYCARALDDYDYEFAYWGQGTLVTVSS
VL: EIVLTQSPDFQSVTPKEKVTITCRASQSIGTNIHWYQQKPDQSPKLLIKYASESISGIPSRFSGSGSGTDFTLTINSLEAEDAATYYCQQNNEWPTSFGQGTKLEIKR
Question: For B2, which EC50 [7] is on record?
Answer: 0.67 nM

Question: What about the “fold change of affinity compared to SWY2110” value [9] of the same molecule?
Answer: 1.2 to 1.3 times

Question: And the EC50 [10]?
Answer: 2.35 nM

B3: EGFR antibody SWY2113 (antibody, human IgG1, kappa, V domains shown)
VH: QVQLQESGPGLVKPSETLSLTCTVSGFSLSHYDVHWVRQAPGKGLEWLGVIWSGGNTDYNTPFTSRLTISVDTSKNQFSLKLSSVTAADTAVYYCARALDDYDYEFAYWGQGTLVTVSS
VL: EIVLTQSPDFQSVTPKEKVTITCRASQSIGTNIHWYQQKPDQSPKLLIKYASESISGIPSRFSGSGSGTDFTLTINSLEAEDAATYYCQQNNEWPTSFGQGTKLEIKR
Question: Which results are given for B3?
Answer: EC50 [7]: 3.39 nM; fold decrease of affinity compared to SWY2110 [8]: 3 to 9.7 times; fold decrease of affinity compared to SWY2110 [9]: 6.6 times; EC50 [10]: 4.76 nM

B4: BA3011 (conjugate, chains of the INN, looked up)
VH: EVQLVQSGAEVKKPGATVKISCKVSGYSFWGATMNWIRQPPGKGLEWIGLIKPSNGGTSYNQKFKGRVTISADKSISTAYLQWSSLKASDTAMYYCAHGHYESYEAMDYWGQGTLVTVSS
VL: DIQMTQSPSSLSASVGDRVTITCKASQDVVSAVAWYQQKPGQAPRLLIYWQDTRHTGVPSRFSGSGSGTEFTLTISSLQPDDFATYYCQEHFSPPLTFGQGTKVEIK
modifications: vedotin (MMAE) payload
Question: With B4 as the molecule, how does the target-related toxicity [11] read?
Answer: no obvious target-related toxicity

B5: BA3021 (conjugate, chains of the INN, looked up)
VH: EVQLVQSGAEVKKPGESLRISCKGSGYTFTEYTMHWVRQAPGQGLEWMGGINTNNGGTGYNQKFKGRVTISADKSISTAYLQWSSLKASDTAMYYCAHGSLYSYGNSYFDYWGQGTLVTVSS
VL: AIQLTQSPSSLSASVGDRVTITCSATSSVSYMHWYLQKPGQSPQLLIYGTSNLASGVPDRFSGSGSGTDFTLKISRVEAEDVGVYYCQQRSSYPFTFGQGTKVEIK
modifications: vedotin (MMAE) payload
Question: For B5, which target-related toxicity [11] is on record?
Answer: no obvious target-related toxicity
